# In article PMC2926616 (Nucleic Acids Research, 2010):
# T1: Human RAD51 (human, UniProt Q06609 1-339)
# T1 sequence (looked up): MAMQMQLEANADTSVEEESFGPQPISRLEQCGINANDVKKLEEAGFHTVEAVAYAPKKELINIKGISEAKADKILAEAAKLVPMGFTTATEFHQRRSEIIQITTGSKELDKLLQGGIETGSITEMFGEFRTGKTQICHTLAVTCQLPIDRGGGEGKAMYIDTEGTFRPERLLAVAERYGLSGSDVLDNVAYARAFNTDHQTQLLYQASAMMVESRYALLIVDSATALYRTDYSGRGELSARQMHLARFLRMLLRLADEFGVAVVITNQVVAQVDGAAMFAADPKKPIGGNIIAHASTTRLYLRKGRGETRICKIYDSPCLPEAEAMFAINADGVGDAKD
# How the values were obtained:
# Human RAD51 = molecular target: T1, Human RAD51; test: pull-down
# RAD51 = RAD51 (human, UniProt Q06609 1-339); test: EMSA
binding result (Human RAD51),Binder,binding result (RAD51)
binds,"Human GEMIN2 (natural protein, UniProt O14893 1-280, looked up) MRRAELAGLKTMAWVPAESAVEELMPRLLPVEPCDLTEGFDPSVPPRTPQEYLRRVQIEAAQCPDVVVAQIDPKKLKRKQSVNISLSGCQPAPEGYSPTLQWQQQQVAQFSTVRQNVNKHRSHWKSQQLDSNVTMPKSEDEEGWKKFCLGEKLCADGAVGPATNESPGIDYVQIGFPPLLSIVSRMNQATVTSVLEYLSNWFGERDFTPELGRWLYALLACLEKPLLPEAHSLIRQLARRCSEVRLLVDSKDDERVPALNLLICLVSRYFDQRDLADEPS",–
–,49-mer dsDNA (dsDNA) DNA 1: GTCCCAGGCCATTACAGATCAATCCTGAGCATGTTTACCAAGCGCATTG DNA 2: CAATGCGCTTGGTAAACATGCTCAGGATTGATCTGTAATGGCCTGGGAC,binds
